Assay [1] has as its system X. oryzae and X. oryzicola. Type of assay: in vivo. The note with it: transgenic rice, pIPG787.
Assay [2] concerns R. solanacearum strain Rsp446. Type of assay: in vivo, Ralstonia solanacearum. As to conditions: seeded T1 tobacco, three experiments each, 60 days.

B1: BombBC: Bacteriophage Outer Membrane Breaching protein of Xanthomonas phage P15 (Xp15) ORF BC, 17.9 kD, SEQ ID NO. 17 (protein, listed as Xanthomonas campestris)
chain: MSDQTDTTQTTPAEKAPPKEIIRGRMPIAVVALARFGSQSTTTTKAAADALGTTVGKIDDIRKNRNFAYVTADFKPTEAQKADGIEWLKRHPVGADALIEELQNLPVATAEESAAFEQVRASARGQNAKTAEGEVAQAGGGNRRKKKEKPAEAGEVQNPPAADGDSLLS
Consider B1, for which, in assay [1], the “resistance to Gram-negative bacterial pathogens” value is on record as “will be resistant”. Besides, in assay [2], the “resistance conferred to transgenic tobacco” value is on record as “strong resistance”.
